Drawing on publication doi:10.1101/2025.10.17.683123, this text covers stoichiometry N for one substance.

For the test, the target named is HCMV Pr S225M (human cytomegalovirus) (UniProt P16753). As to the kind of experiment: SEC-MALS; HCMV Pr alone on SEC, eluate into Wyatt Dawn Pro and Optilab; concentration not given. Background: SEC sorts molecules by how far they enter the pores of the column.

The stoichiometry N is a count of units in the complex or per binding partner. For the substance “HCMV Pr S225M (from UniProt P16753) (enzyme)”, the stoichiometry N worked out at 2.
